Data taken from patent US20260167693A1 (ANGELES THERAPEUTICS, published 2026).

Tests used:
CD19-ECD-GGSG-NLuc-AcV5 [1] = target: T1, CD19-ECD-GGSG-NLuc-AcV5 (human); assay: NLuc binding assay, SIR on Jurkat-NFAT-GFP cells
T1 construct: also called CD19-GGSG-NLuc-AcV5; Flag-CD19-GGSG-NLuc-AcV5
T1 chain: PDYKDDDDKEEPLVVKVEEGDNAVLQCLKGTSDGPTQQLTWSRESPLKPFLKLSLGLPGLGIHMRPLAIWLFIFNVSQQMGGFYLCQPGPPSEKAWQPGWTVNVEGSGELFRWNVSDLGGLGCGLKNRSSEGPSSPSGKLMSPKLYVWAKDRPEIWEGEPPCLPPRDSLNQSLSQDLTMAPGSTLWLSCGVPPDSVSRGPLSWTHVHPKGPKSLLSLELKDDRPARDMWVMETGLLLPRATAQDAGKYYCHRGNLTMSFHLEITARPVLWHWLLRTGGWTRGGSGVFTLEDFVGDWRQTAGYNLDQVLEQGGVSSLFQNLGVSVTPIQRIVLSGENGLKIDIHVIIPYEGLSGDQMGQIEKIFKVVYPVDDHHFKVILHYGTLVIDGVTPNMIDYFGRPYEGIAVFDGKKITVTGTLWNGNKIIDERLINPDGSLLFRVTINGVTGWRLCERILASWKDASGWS

CD19-ECD-GGSG-NLuc-AcV5 [2] = target: T1, CD19-ECD-GGSG-NLuc-AcV5; assay: NLuc binding assay, SIR on Jurkat-NFAT-Luc cells
CD19-ECD-GGSG-NLuc-AcV5 [3] = target: T1, CD19-ECD-GGSG-NLuc-AcV5; assay: NLuc binding assay, single chain unit in Jurkat-NFAT-GFP cells

Binder | CD19-GGSG-NLuc (RLU) (CD19-ECD-GGSG-NLuc-AcV5 [1]) | binding result (CD19-ECD-GGSG-NLuc-AcV5 [2]) | binding result (CD19-ECD-GGSG-NLuc-AcV5 [3])
CD8SP-FMC63-vL-V5-[hTCRb-WT]-F-P2A-SP-FMC63-vH-Myc-[hTCRa-WT]-F-F2A-PAC (080815-F02)[SEQ ID NO:922] (other, SIR with wild-type TCR constant chains; Polyprotein PRT 3157) TCR beta: DIQMTQTTSSLSASLGDRVTISCRASQDISKYLNWYQQKPDGTVKLLIYHTSRLHSGVPSRFSGSGSGTDYSLTISNLEQEDIATYFCQQGNTLPYTFGGGTKLEITGKPIPNPLLGLDSTGSGEDLKNVFPPEVAVFEPSEAEISHTQKATLVCLATGFYPDHVELSWWVNGKEVHSGVSTDPQPLKEQPALNDSRYCLSSRLRVSATFWQNPRNHFRCQVQFYGLSENDEWTQDRAKPVTQIVSAEAWGRADCGFTSESYQQGVLSATILYEILLGKATLYAVLVSALVLMAMVKRKDSRG TCR alpha: EVKLQESGPGLVAPSQSLSVTCTVSGVSLPDYGVSWIRQPPRKGLEWLGVIWGSETTYYNSALKSRLTIIKDNSKSQVFLKMNSLQTDDTAIYYCAKHYYYGGSYAMDYWGQGTSVTVSSEQKLISEEDGSGIQNPDPAVYQLRDSKSSDKSVCLFTDFDSQTNVSQSKDSDVYITDKTVLDMRSMDFKSNSAVAWSNKSDFACANAFNNSIIPEDTFFPSPESSCDVKLVEKSFETDTNLNFQNLSVIGFRILLLKVAGFNLLMTLRLWSS | 768 | no binding | –
CD8SP-FMC63-vL-V5-[hTCRb-KACIAH]-F-P2A-PAC (other, One functional polypeptide unit alone in Jurkat-NFAT-GFP cells; PRT 3148; also called 050216-S08) TCR beta: DIQMTQTTSSLSASLGDRVTISCRASQDISKYLNWYQQKPDGTVKLLIYHTSRLHSGVPSRFSGSGSGTDYSLTISNLEQEDIATYFCQQGNTLPYTFGGGTKLEITGKPIPNPLLGLDSTGSGEDLKNVFPPEVAVFEPSKAEIAHTQKATLVCLATGFYPDHVELSWWVNGKEVHSGVCTDPQPLKEQPALNDSRYCLSSRLRVSATFWQNPRNHFRCQVQFYGLSENDEWTQDRAKPVTQIVSAEAWGRADCGITSASYHQGVLSATILYEILLGKATLYAVLVSALVLMAMVKRKDSRG | – | – | no binding
CD8SP-FMC63-vH-MYC-[TCRα-CSDVP]-F-F2A-BlastR (other, One functional polypeptide unit alone in Jurkat-NFAT-GFP cells; PRT 3232; also called 041916-A02) TCR alpha: EVKLQESGPGLVAPSQSLSVTCTVSGVSLPDYGVSWIRQPPRKGLEWLGVIWGSETTYYNSALKSRLTIIKDNSKSQVFLKMNSLQTDDTAIYYCAKHYYYGGSYAMDYWGQGTSVTVSSEQKLISEEDGSGIQNPDPAVYQLRDSKSSDKSVCLFTDFDSQTNVSQSKDSDVYITDKCVLDMRSMDFKSNSAVAWSNKSDFACANAFNNSIIPEDTFFPSSDVPCDVKLVEKSFETDTNLNFQNLSVIGFRILLLKVAGFNLLMTLRLWSS | – | – | no binding
